# Assay: yeast display, Sf9 membrane polyspecificity reagent, FACS + sequencing; frameworks hold sequencing errors
# Summary of the method: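 In a synthetic yeast display library (Saccharomyces cerevisiae BJ5465), nanobody expression was induced with galactose for 36–48 hours. FACS gates were set low and high (top ~1%) using anti-HA fluorescence for expression and streptavidin fluorescence for binding of the Sf9 membrane reagent. Each polyreactivity label is drawn from the gate of origin.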
row,Sequence,polyreactivity (PSR sort gate)
1,QVQLVESGGGLVQAGGSLRLSCAASGIIFRLNAMGWYRQAPGKERELVAAIRRRGGSTYYADSVKGRFTISRDIAKNTVYLQMNSLKPEDTAVYYCAKDPHGSDFGYWGQGTQVTVSS,low polyreactivity
2,PVQLVESGGGLVQAGGSLRLICAASGRIFLPYAMGWYRQAPGKERELVASITRRGGTTYYADSVKGRFTLSRDYAKNTDYLQLNSLKTEDTSVYYCAADSGYRLQSYGYWGQGTQVTVSS,high polyreactivity
3,QVQRVESGVRLVQAGGSLRLSCASSGSIFRYYTMGWYRQAPGKERELVAAISRSGGSTYYADSVKGRFTISRDNAKNTVYLQMNSLKPVDTGVYYCAARYKRAQGYREGDYWGQGTQVTVSS,high polyreactivity
4,QVQLVESGGGLVQAGGSLRLSCAASGFIFGTNTMGWYRQAPGKERELVAAITSVGSTNYADSVKGRFTISRDNAKNTVYLQMNSLKPEDTAVYYCPATLYYQYGGDYWGQGTQVTVSS,low polyreactivity
5,QVQLVESGGGLVQAGGSLRLSCAASGITFRYYPMGWYRPAPGKQRELVAAISRTSGRTYYADSVKGRFTISRDNAKNTVYLQMNSLNPEDPAVYYCNKAWTPSLLYQSYYWGQGPQVTVSS,high polyreactivity
6,QVQLVESGGGLVQAGGSLRLSCAASGFTFRSNAMGWYRQAPGKARELVAAISYSGDSTYYADSVKGRFTISRDTAKNTVYLQMNSLKPEDTAVYYCAADGYDQWGRVGVYLIWTSYDYWGQGTQVTVSS,high polyreactivity
7,QVQLVESGGGLVQAGGSLRLSCAASGSIFAPYAMGLYRQAPGKERELVAAIRSSGGSTHYADSVKGRFTISRDNAKNTVYLQMNSLKPEDTAVYYCARSYGWYRWAGYDYWGQGTQVTVSS,high polyreactivity
8,QVQLQDSGGGLVLAGGSLRLSCSASGNISVYGSMGWYRQAPGKEREFVATIDPGTNTNYADSVKDRFTISRDNAKNTVYLQMNSLKPEDTAVYYCAVEAGSDWPYRYWGQGTQVTVSS,low polyreactivity
9,QVQLVESGGGLVQAGGSLRLSCAASGYTFYPYAMGWYRQAPGKERELVAAISGGASTYYADSVKGRFTISRDNAKNTVYLHMNSLKPEDTAVYYCAVSVYTYVVWYVAATYDYWGQGTQVTVSS,low polyreactivity
10,QVQLVESGGGLVQAGGSLRLSCAASGFTYPPYAMGWYRQAPGKERELVAAISSAGSTKYADSVKGRFTISRDNAKNTVYLQMNSLKPEDTAVYYCAARWARSYDYWGQGTQVTVSS,low polyreactivity
11,QVQLVESGGGLVQAGGSLRLSCAASGFTFHNNVMGWYRQATGKERELVATISKSGGSTYYADSVKGRFTISRDNAKNTVYLQMNSLKPEDTAVYYCARRYRDYDYWGQGTQVTVSS,high polyreactivity
12,QVQLVESGGGLVQAGGSLRLSCAASGLTFVDNALGWYRQAPGKERELVAAISYNGGSTYYADSVKGRFTISRDNAKNTVYLQMNSLKPEDTAVYYCAADISVGRYGDMDYWGQGTQVTVSS,low polyreactivity
13,QVQLVESGGGLVQAGGSLRLSCAASGSTFRSYAMGWYRQAPGKERELVAAITSGANTNYADSVKGRFTISRDNAKNTVDLQMNSLKPEDTAVYYCAKASYIIFRIEYRSGYDYWGQGTQVTVSS,low polyreactivity
14,QVQLVESGGGLGQAGGSLRLSCAASGSIFGRYTMGWYRQAPGKERELVAAITLRGGSTYYADSVKGRFTISRDNAKNTVYLQMNSLKPEDTAVYYCATDGWKQSAYDYWGQGTQVTVSS,low polyreactivity
15,QVQLVESGGGLVQAGGSLRLSCAASGRTFYRYAMGWYRQAPGKERELVAAIRWSGGSTYYADSVKGRFTISRDNAKNTVYLQMNSLKPEDTAVYYCAARAIQLVDGRYKVRMDYWGQGTQVTVSS,low polyreactivity
16,QVQLVESGGGLVQAGGSLRLSCAASGFSFTNYAMGWYRQAPGKERELVAAINRSGGRTYYADSVKGRFTISRDNAKNTVYLQMNSLKPEDTAVYYCAAYGRYYYIYDYWGQGTQVTVSS,high polyreactivity
17,QVQLVESGGGLVQAGGSLRLSCAASGSTFYTYTMGWYRPGPGKEMELVAAISSSGGDTYYADSVKGRFTISRDNAKNTVYLQMNSLKPEDTAVYYCAALGAFPSLEFDYWGQGTQVTVSS,low polyreactivity
18,QVQLVESGGGLDQAGGSLRLSCAASGTFSRNAMGWYRQAPGKERELLADISGGRSTDYADSVKGRFTISRDNAKNTVYLQMNSLKPEDTAVYYCAAYGYLWWEMDYWGQGTQVTVSS,high polyreactivity
19,QVQLVESGGGLVQAGRSLRLSCAASGSTFPWYTMGWYRQAPGKERELVAAIDGSAGDTYYADSVKGRFTISRDNAKNTVYLQMNSLKPEDTAVYYCATRTSRWGYLHYDYWGQGTQVTVSS,low polyreactivity
20,QVQLVESGGGLVHAGRSLRLSCAPSGSTFSIYDMGWSRQAPGKERELVAAISGSGSRTYYADSVKGRFTISRDNAKNTVYLQMNSLKPEDTALYYCAARGRHRDGFDFNYWGQGTQVTVSS,high polyreactivity
21,QVQLVDSGGGLVQAGGSLRLSCAASGSIFHVYAMGWYRQAPGKERELFAAIDRSGGSTYYADSVKGRFTISRDNAKNTVYLQMNSLKPEDTAVFYCAKDVLGGLITDGVGNDYWGQGTQLTVSS,low polyreactivity
22,QVQLVESGGGLVQAGGSLRLSCAASGSIFGLYAMGWYRQAPGKERELVAAISASGGSTYYADSVKGRFTISRDNAKNTVYLQMNSLKPEDTAVYYCAKKQRYYGRMDYWGQGTQVTVSS,high polyreactivity

row,Sequence,polyreactivity (PSR sort gate)
1,QVQLVDSGGGLVQAGGSLRLICAASGRIFYTNAMGWYRQAPGKERELVAAIDYSDSTTYYADSVKRRYTISRDNAKNTVYLQMNSLKPEDTAVYYCAAESYLYTVTFEYWGQGTQVTVSS,high polyreactivity
2,QVQLVESGGGLVQAGGSLRLSCAASGSIFRINGMGCYRQAPGKERELVADITGGGSTYYADSVKGRFTISRDNAKNTVYLHMNSLKPEDTAVYYCAKDYYRSYGREDYWGQGTQVTVSS,low polyreactivity
3,QFQLVESGGGLFQAGGSLRLSSAASGITFRYYAMGWYRQAPGKERELVAAITRSGSSTFYADSVKGRFTISLDNAKNTVYLQMNSLKPEDTAVYYCAAESVRAVFPDRYKYWGQGTQVTVSS,high polyreactivity
4,QFQLVESCGGLVQAGGSLRLSCAASGPIFKSNAMGCYRQAPGKERELVAAISGSGGRTYYAHSVKGRFTISRDNANNTVYLQMNSLKPEDTAVYYCNAGGSYYARGMDYWGQGTQVTVSS,high polyreactivity
5,QVQLVESGGGLVQAGGSLRLSCAASGSIFSPNAMGWYRQAPGKEMELVPRITSGGSTFYADSVKGRFTISRDYAKNTVYLQMYSLKPEDTAVSYCAAVQTRYTSVFSSTRYDYWGQGTQVTVSS,low polyreactivity
6,QDQLEESGGGLVQAGGSLRLICAAYGSTFVLYDMGWYRQEPGKERELVADISYSGGSTYYEDSVKGRFTISRDNAKYTVYLLMKRLIPEDTAFYYCIAGVLVLLYAYLPSELEYWGQGTQVTVSS,low polyreactivity
7,QVQLVESGGGLVQAGGSLRLSCAASGRILVYYAMGWYRQAPGKERELVAAIRSSGSSTYYSDSVKGRFTISRDNAKNTVYLQMNSLKPEDTAVYYCAAYYYIGGKYGSQVYEYDYWGQGTQVTVSS,low polyreactivity
8,QVQLVESGGGLVQAGGSLRLSCAASGSTFLNYAMGWYRQAPGKERELVAAISFSGGRTYYADSVKGRFTISRDNAKNTVFLQMNSLKPEDTAVYYCAARGSYAYYRGQGTQVTVSS,high polyreactivity
9,QVQLVESGGGLVQAGGSLRISCAASGITFWYYAMGWYRQAPGKERELVAAITRSGRTNYADSVKGRFTISRDNAKNTVYLQMNSLKPEDTAVYYCNAASLRYSYTLFDSWGLGTQVTVSS,high polyreactivity
10,QVQLVESGGGLVQAGGSLRLICAASGFTFRSYAMGWYRQAPGKERELVAAITSTGGRTYYADSVKGRFTISRDNAKNTVYLQMNSLKPEDTAVYYCAAGRKHYAPVHFGYWGQGTQVTVSS,high polyreactivity
11,QVQLVESGGGLVQAGGSLRLSCAASGSTFAPNAMGWYRQAPGKERELVAAISSGGDSTNYADYVKGRFTISRDNAKNTVYLQMNSLKPEDTAVYYCAHGYCFVAYDYWGQGTQVTVSS,low polyreactivity
12,QVQLVESGGGLVQAGGSLRLSCAASGITLSRNAMGWYRQAPGKERELVAAITWRTDRTYYADSVKGRFTISRDNAKNTVYLQMNSLKPEDTAVYYCAARTTVSSARYDYWGQGTQVTVSS,high polyreactivity
13,QVQLVESGGGLVQAGGSLRLSCAASGLTFSPYAKGWYRQAPGKERELVASITNGGRTYYADSVKGRFTISRDNAKNTVYLQMNSLKPEDTAVYYCNAAYFGWFNTYNYWGQGTQVTVSS,high polyreactivity
14,QVQLVESGGGLVQAGGSLRLSCAASGRTFGYYAMGWYRQAPGKERELVASITTGGSTDYADSVKGRFTISRDNAKNTVYLQMNSLKPEDTAVYYCAAKPNPYTKARYYYWGQGTQVTVSS,high polyreactivity
15,QVQLVESGGGLVQAGGSLRLSCAASGLIFYGNAMGWYRQAPWKERELVAAITGGGGNTYYADSVKGRFTISRDNAKITFFLQMISLKPEDTAVYYCASASSTAYVRYYYWGQGTQVTVSS,high polyreactivity
16,QVQLVESGGGLVQAGGSLRLSCAASGSIFLANAMGWYRQAPGKERELVAAINYADSVKGRFTISRDNAKNTVYLQMNSLKPEDTAVYYCYSKYDYWGQGTQVTVSS,low polyreactivity
17,QVQLVESGGGLVQAGGSLRLSCAASGIIFPFYAMGWYRQEPGKERELVAAITSGDDTYYADSVKGRFTISRDNAKNTVYLQMNSLKPEDTAVYYCAADSPYVVAWPYVWYFTFDYCGQGTQVTVSS,low polyreactivity
18,QVQLVESVGGLVQAGGSLRIICAASGITLAWYSMGWYRKAPGKERELVASISSSGSTNYADSVKGRFTISRDNAKNTVYLQMNSLIPEETAVYYCNKDYLLLHYYIYVIEGDYWGQGTQVTVSS,low polyreactivity
19,QVQLHESGGGLLQAGGGLRLSCAASGSISSTGFMGWYRQAPGKEREPVAAIAPGTTTYYADSVKGRFTISRDNAKNTVYLQMNSLRPEDTAVYYCAVFTDNRVAFLYWGQGTQVTVSS,low polyreactivity
20,QVQLVESGGGLVQAGGSLRVSCAASGFIFGLYAMGWYRQAPGKERELVATISWDGGSTYYADSVKGRFTISRDNAKNTVYLQMNSLKPEDTAVYYCAATYLYRSPYVPMDYWGQGSQVTVSS,low polyreactivity
21,QVQLEESGGGLVQAGGSLRLSCAASGRTSLAYAKGWYRQAPGKERELVAGITSGGNTNYADSVKGRFTISRDNAKNTVYLQMNSLKPEDTAVYSCNKKKRWQWYSESVLVYLGFYSWGQGTQVTVSS,low polyreactivity
